# *1 amine or outer side, *2 acyl side, *3 side chain or, on linkers, in order; H or OH if unused. [ ]: non-standard residue; d: D form. The star is where a group is joined. Achc(cis-1,4) = O=C([C@H]1CC[C@@H](N[*:1])CC1)[*:2]; Achc(trans-4) = O=C([C@H]1CC[C@H](N[*:1])CC1)[*:2]; 3Amb = NCc1cccc(C(=O)O)c1; Octanoyl = CCCCCCCC(=O)*
# Target: human growth hormone secretagogue receptor type 1a (human, UniProt Q92847 1-366)
# Test: cell-based or functional assay
# Sequence of human growth hormone secretagogue receptor type 1a (Q92847 whole entry): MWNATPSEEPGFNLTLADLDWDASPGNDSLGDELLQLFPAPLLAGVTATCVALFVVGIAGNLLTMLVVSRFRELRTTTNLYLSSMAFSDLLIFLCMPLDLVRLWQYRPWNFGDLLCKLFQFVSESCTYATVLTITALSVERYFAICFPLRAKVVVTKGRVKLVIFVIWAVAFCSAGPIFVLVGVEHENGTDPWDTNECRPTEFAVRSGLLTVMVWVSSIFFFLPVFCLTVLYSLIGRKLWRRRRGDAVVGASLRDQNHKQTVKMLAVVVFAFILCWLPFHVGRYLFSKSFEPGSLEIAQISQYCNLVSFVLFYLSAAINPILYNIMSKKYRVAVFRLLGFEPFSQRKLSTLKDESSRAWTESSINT
row,Binder,EC50 (nM); Ca2+ induction in HEK293 cells stably expressing the human ghrelin receptor [nM]
1,"H-[Achc(cis-1,4)]S(Octanoyl)FLSPEHQRVQQRKESKKPPAKLQPR-OH (SMILES CCCCCCCC(=O)OC[C@H](NC(=O)[C@H]1CC[C@@H](N)CC1)C(=O)N[C@@H](Cc1ccccc1)C(=O)N[C@@H](CC(C)C)C(=O)N[C@@H](CO)C(=O)N1CCC[C@H]1C(=O)N[C@@H](CCC(=O)O)C(=O)N[C@@H](Cc1c[nH]cn1)C(=O)N[C@@H](CCC(N)=O)C(=O)N[C@@H](CCCNC(=N)N)C(=O)N[C@H](C(=O)N[C@@H](CCC(N)=O)C(=O)N[C@@H](CCC(N)=O)C(=O)N[C@@H](CCCNC(=N)N)C(=O)N[C@@H](CCCCN)C(=O)N[C@@H](CCC(=O)O)C(=O)N[C@@H](CO)C(=O)N[C@@H](CCCCN)C(=O)N[C@@H](CCCCN)C(=O)N1CCC[C@H]1C(=O)N1CCC[C@H]1C(=O)N[C@@H](C)C(=O)N[C@@H](CCCCN)C(=O)N[C@@H](CC(C)C)C(=O)N[C@@H](CCC(N)=O)C(=O)N1CCC[C@H]1C(=O)N[C@@H](CCCNC(=N)N)C(=O)O)C(C)C) [H-[cACC]-S(O-octanoyl)-FLSPEHQRVQQRKESKKPPAKLQPR-OH]",0.379
2,H-[Achc(trans-4)]S(Octanoyl)FLSPEHQRVQQRKESKKPPAKLQPR-OH (SMILES CCCCCCCC(=O)OC[C@H](NC(=O)[C@H]1CC[C@H](N)CC1)C(=O)N[C@@H](Cc1ccccc1)C(=O)N[C@@H](CC(C)C)C(=O)N[C@@H](CO)C(=O)N1CCC[C@H]1C(=O)N[C@@H](CCC(=O)O)C(=O)N[C@@H](Cc1c[nH]cn1)C(=O)N[C@@H](CCC(N)=O)C(=O)N[C@@H](CCCNC(=N)N)C(=O)N[C@H](C(=O)N[C@@H](CCC(N)=O)C(=O)N[C@@H](CCC(N)=O)C(=O)N[C@@H](CCCNC(=N)N)C(=O)N[C@@H](CCCCN)C(=O)N[C@@H](CCC(=O)O)C(=O)N[C@@H](CO)C(=O)N[C@@H](CCCCN)C(=O)N[C@@H](CCCCN)C(=O)N1CCC[C@H]1C(=O)N1CCC[C@H]1C(=O)N[C@@H](C)C(=O)N[C@@H](CCCCN)C(=O)N[C@@H](CC(C)C)C(=O)N[C@@H](CCC(N)=O)C(=O)N1CCC[C@H]1C(=O)N[C@@H](CCCNC(=N)N)C(=O)O)C(C)C) [H-[tACC]-S(O-octanoyl)-FLSPEHQRVQQRKESKKPPAKLQPR-OH],1.89
3,H-[3Amb]S(Octanoyl)FLSPEHQRVQQRKESKKPPAKLQPR-OH (SMILES CCCCCCCC(=O)OC[C@H](NC(=O)c1cccc(CN)c1)C(=O)N[C@@H](Cc1ccccc1)C(=O)N[C@@H](CC(C)C)C(=O)N[C@@H](CO)C(=O)N1CCC[C@H]1C(=O)N[C@@H](CCC(=O)O)C(=O)N[C@@H](Cc1c[nH]cn1)C(=O)N[C@@H](CCC(N)=O)C(=O)N[C@@H](CCCNC(=N)N)C(=O)N[C@H](C(=O)N[C@@H](CCC(N)=O)C(=O)N[C@@H](CCC(N)=O)C(=O)N[C@@H](CCCNC(=N)N)C(=O)N[C@@H](CCCCN)C(=O)N[C@@H](CCC(=O)O)C(=O)N[C@@H](CO)C(=O)N[C@@H](CCCCN)C(=O)N[C@@H](CCCCN)C(=O)N1CCC[C@H]1C(=O)N1CCC[C@H]1C(=O)N[C@@H](C)C(=O)N[C@@H](CCCCN)C(=O)N[C@@H](CC(C)C)C(=O)N[C@@H](CCC(N)=O)C(=O)N1CCC[C@H]1C(=O)N[C@@H](CCCNC(=N)N)C(=O)O)C(C)C) [H-Mamb-S(O-octanoyl)-FLSPEHQRVQQRKESKKPPAKLQPR-OH],1.56

# From patent US9657062B2, “Ghrelin analogues” (Zealand Pharma A/S, priority 2012, dated 2017)
